Tests used:
[1] = molecular target: BG505 SOSIP.664 trimer, wild type, produced in 293S cells (HIV-1 (clade A strain BG505)) (UniProt Q2N0S6); assay: ITC
[2] = molecular target: BG505 SOSIP.664-N137A trimer, produced in 293S cells (HIV-1 (clade A strain BG505)); assay: ITC

Molecule	Kd [1] [nM]	fold higher affinity against 32H+3L on the same trimer [1] [fold]	fold enhanced affinity against its binding to the wild-type trimer [2] [fold]	Kd [2] [nM]
PGT124 (mature bnAb of the PGT121 family) (Fab)	32	13	–	–
9H+3L Fab (inferred intermediate of the PGT122 branch) (Fab, V domains shown) VH: QVQLQESGPGLVKPSETLSLTCSVSGASISDHYWSWIRQSPGKGLEWIGYVYDSGDTNYNPSLKSRVNLSLDTSKNQVSLSLTAVTAADSAIYYCARTQHGRRIYGIVAFREWFTYFYMDVWGQGTPVTVSS VL: SYVLTQPSQLSVAPGETARISCGGRSLGSRAVQWYQQKPGQAPVLVIYNNQDRPSGIPERFSGSPDSNFGTTATLTISRVEAGDEADYYCHMWDSRSAINWVFGGGTKLTVL	–	–	11	–
3H+3L Fab (inferred early precursor of the PGT121 family) (Fab, V domains shown) VH: QVQLQESGPGLVKPSETLSLTCTVSGGSISNYYWSWIRQSPGKGLEWIGYISDSESTNYNPSLKSRVIISVDTSKNQLSLKLNSVTAADSAIYYCARAQQGKRIYGMVSFGEFFYYYYMDVWGKGTTVTVSS VL: SYVLTQPSQLSVAPGETARISCGGRSLGSRAVQWYQQKPGQAPVLVIYNNQDRPSGIPERFSGSPDSNFGTTATLTISRVEAGDEADYYCHMWDSRSAINWVFGGGTKLTVL	–	–	15	35
PGT124 (mature bnAb of the PGT121 family) (Fab, V domains shown) VH: QVQLQESGPGLVRPSETLSVTCIVSGGSISNYYWTWIRQSPGKGLEWIGYISDRETTTYNPSLNSRAVISRDTSKNQLSLQLRSVTTADTAIYFCATARRGQRIYGVVSFGEFFYYYYMDVWGKGTAVTVSS VL: SYVSPLSVALGETARISCGRQALGSRAVQWYQHKPGQAPILLIYNNQDRPSGIPERFSGTPDINFGTTATLTISGVEVGDEADYYCHMWDSRSGFSWSFGGATRLTVL	–	–	5	–
32H+3L Fab (inferred intermediate of the PGT124 branch) (Fab, V domains shown) VH: QVQLQESGPGLVKPSETLSVTCIVSGGSISNYYWTWIRQSPGKGLEWIGYISDRETTTYNPSLKSRVVISRDTSKNQLSLKLNSVTAADTAIYYCATARRGQRIYGVVSFGEFFYYYYMDVWGKGTAVTVSS VL: SYVLTQPSQLSVAPGETARISCGGRSLGSRAVQWYQQKPGQAPVLVIYNNQDRPSGIPERFSGSPDSNFGTTATLTISRVEAGDEADYYCHMWDSRSAINWVFGGGTKLTVL	–	–	16	–
